Measured values from PMC9304036 (Proceedings of the National Academy of Sciences of the …, 2022).
Changes are numbered by the printed parent chain.

B1: ADG20 Fab (Fab, V domains shown)
VH: EVQLVESGGGLVKPGGSLRLSCAASGFTFSSYYMNWVRQAPGKGLEWVSSISEDGYSTYYPDSLKGRFTISRDSAKNSLYLQMNSLRADDTAVYYCARDFSGHTAWAGTGFEYWGQGTLVTVSS
VL: QPVLTQPPSVSGAPGQRITISCTGSSSNIGAGYDVHWYQQLPGTAPKLLIYGSSSRNSGVPDRFSGSKSGTSASLAITGLQAEDEADYYCQSYDSSLSVLYTFGTGTKVTVL
notes: also called ADG-2 (same Fab domain)
B2: ADI-55688 Fab (Fab, V domains shown)
VH: B1 VH with E53S, S57N, W106V
VL: B1 VL with N57P, T102V
notes: also called parental antibody of ADG20
B3: ADG20 IgG (antibody, V domains shown)
VH: B1 VH
VL: B1 VL
notes: copies: 2 + 2

What was measured:
[1] = target: SARS-CoV-2 spike receptor-binding domain (RBD), residues 333 to 529, wild type, for crystallization (SARS-CoV-2 Wuhan-Hu-1 (QHD43416.1), UniProt P0DTC2); test: crystal structure; conditions: both partners purified
[2] = target: SARS-CoV-2 RBD, ancestral (wild type), for biolayer interferometry (SARS-CoV-2 Wuhan-Hu-1 (ancestral), UniProt P0DTC2); test: BLI; Octet Red; […] (15 µg/mL) […] (AHC) biosensors; […]; 1x PBS pH 7.4, 0.01% BSA, 0.002% Tween 20; association 90 s, dissociation 90 s; 1:1 binding model; conditions: both partners purified

Row | Binder | binding result [1] | binding result [2]
1 | B1 | binds | 
2 | B2 | binds | 
3 | B3 |  | binds
